Test results taken from patent publication US20240261333A1, “NOVEL TARGETS FOR ENHANCING ANTI-TUMOR IMMUNITY” (THE BROAD INSTITUTE, INC., priority 2021, published 2024).

T1: B3GNT2 (Homo sapiens, UniProt Q9NY97)
T1 construct: The respective ORFs of candidate genes [CD274 (NM_014143), MCL1 (NM_021960), JUNB (NM_002229), and B3GNT2 (NM_006577)] were synthesized; expressed in transfected cells; host or cells: A375 melanoma cells (lentiviral ORF overexpression)
T1 sequence (Q9NY97 1-397): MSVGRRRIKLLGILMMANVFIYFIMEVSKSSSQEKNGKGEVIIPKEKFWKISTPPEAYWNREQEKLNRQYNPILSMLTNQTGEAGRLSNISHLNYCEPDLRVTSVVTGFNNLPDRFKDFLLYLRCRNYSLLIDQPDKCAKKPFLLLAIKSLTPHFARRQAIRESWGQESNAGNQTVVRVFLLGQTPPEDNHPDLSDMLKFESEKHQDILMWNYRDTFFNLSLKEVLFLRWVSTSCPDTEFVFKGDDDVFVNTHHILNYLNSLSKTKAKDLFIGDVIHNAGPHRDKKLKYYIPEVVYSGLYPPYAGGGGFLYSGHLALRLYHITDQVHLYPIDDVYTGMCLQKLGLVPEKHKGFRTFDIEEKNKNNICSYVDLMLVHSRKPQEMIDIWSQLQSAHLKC

B1: SAMM50 (protein)
chain: MGTVHARSLEPLPSSGPDFGGLGEEAEFVEVEPEAKQEILENKDVVVQHVHFDGLGRTKDDIIICEIGDVFKAKNLIEVMRKSHEAREKLLRLGIFRQVDVLIDTCQGDDALPNGLDVTFEVTELRRLTGSYNTMVGNNEGSMVLGLKLPNLLGRAEKVTFQFSYGTKETSYGLSFFKPRPGNFERNFSVNLYKVTGQFPWSSLRETDRGMSAEYSFPIWKTSHTVKWEGVWRELGCLSRTASFAVRKESGHSLKSSLSHAMVIDSRNSSILPRRGALLKVNQELAGYTGGDVSFIKEDFELQLNKQLIFDSVFSASFWGGMLVPIGDKPSSIADRFYLGGPTSIRGFSMHSIGPQSEGDYLGGEAYWAGGLHLYTPLPFRPGQGGFGELFRTHFFLNAGNLCNLNYGEGPKAHIRKLAECIRWSYGAGIVLRLGNIARLELNYCVPMGVQTGDRICDGVQFGAGIRFL
B2: PUM1 (protein)
chain: SVACVLKRKAVLWQDSFSPHLKHHPQEPANPNMPVVLTSGTGSQAQPQPAANQALAAGTHSSPVPGSIGVAGRSQDDAMVDYFFQRQHGEQLGGGGSGGGGYNNSKHRWPTGDNIHAEHQVRSMDELNHDFQALALEGRAMGEQLLPGKKFWETDESSKDGPKGIFLGDQWRDSAWGTSDHSVSQPIMVQRRPGQSFHVNSEVNSVLSPRSESGGLGVSMVEYVLSSSPGDSCLRKGGFGPRDADSDENDKGEKKNKGTFDGDKLGDLKEEGDVMDKTNGLPVQNGIDADVKDFSRTPGNCQNSANEVDLLGPNQNGSEGLAQLTSTNGAKPVEDFSNMESQSVPLDPMEHVGMEPLQFDYSGTQVPVDSAAATVGLFDYNSQQQLFQRPNALAVQQLTAAQQQQYALAAAHQPHIGLAPAAFVPNPYIISAAPPGTDPYTAGLAAAATLGPAVVPHQYYGVTPWGVYPASLFQQQAAAAAAATNSANQQTTPQAQQGQQQVLRGGASQRPLTPNQNQQGQQTDPLVAAAAVNSALAFGQGLAAGMPGYPVLAPAAYYDQTGALVVNAGARNGLGAPVRLVAPAPVIISSSAAQAAVAAAAASANGAAGGLAGTTNGPFRPLGTQQPQPQPQQQPNNNLASSSFYGNNSLNSNSQSSSLFSQGSAQPANTSLGFGSSSSLGATLGSALGGFGTAVANSNTGSGSRRDSLTGSSDLYKRTSSSLTPIGHSFYNGLSFSSSPGPVGMPLPSQGPGHSQTPPPSLSSHGSSSSLNLGGLTNGSGRYISAAPGAEAKYRSASSASSLFSPSSTLFSSSRLRYGMSDVMPSGRSRLLEDFRNNRYPNLQLREIAGHIMEFSQDQHGSRFIQLKLERATPAERQLVFNEILQAAYQLMVDVFGNYVIQKFFEFGSLEQKLALAERIRGHVLSLALQMYGCRVIQKALEFIPSDQQVINEMVRELDGHVLKCVKDQNGNHVVQKCIECVQPQSLQFIIDAFKGQVFALSTHPYGCRVIQRILEHCLPDQTLPILEELHQHTEQLVQDQYGNYVIQHVLEHGRPEDKSKIVAEIRGNVLVLSQHKFASNVVEKCVTHASRTERAVLIDEVCTMNDGPHSALYTMMKDQYANYVVQKMIDVAEPGQRKIVMHKIRPHIATLRKYTYGKHILAKLEKYYMKNGVDLGPICGPPNGII
B3: UBAP2L (protein)
chain: MMTSVGTNRARGNWEQPQNQNQTQHKQRPQATAEQIRLAQMISDHNDADFEEKVKQLIDITGKNQDECVIALHDCNGDVNRAINVLLEGNPDTHSWEMVGKKKGVSGQKDGGQTESNEEGKENRDRDRDYSRRRGGPPRRGRGASRGREFRGQENGLDGTKSGGPSGRGTERGRRGRGRGRGGSGRRGGRFSAQGMGTFNPADYAEPANTDDNYGNSSGNTWNNTGHFEPDDGTSAWRTATEEWGTEDWNEDLSETKIFTASNVSSVPLPAENVTITAGQRIDLAVLLGKTPSTMENDSSNLDPSQAPSLAQPLVFSNSKQTAISQPASGNTFSHHSMVSMLGKGFGDVGEAKGGSTTGSQFLEQFKTAQALAQLAAQHSQSGSTTTSSWDMGSTTQSPSLVQYDLKNPSDSAVHSPFTKRQAFTPSSTMMEVFLQEKSPAVATSTAAPPPPSSPLPSKSTSAPQMSPGSSDNQSSSPQPAQQKLKQQKKKASLTSKIPALAVEMPGSADISGLNLQFGALQFGSEPVLSDYESTPTTSASSSQAPSSLYTSTASESSSTISSNQSQESGYQSGPIQSTTYTSQNNAQGPLYEQRSTQTRRYPSSISSSPQKDLTQAKNGFSSVQATQLQTTQSVEGATGSAVKSDSPSTSSIPPLNETVSAASLLTTTNQHSSSLGGLSHSEEIPNTTTTQHSSTLSTQQNTLSSSTSSGRTSTSTLLHTSVESEANLHSSSSTFSTTSSTVSAPPPVVSVSSSLNSGSSLGLSLGSNSTVTASTRSSVATTSGKAPPNLPPGVPPLLPNPYIMAPGLLHAYPPQVYGYDDLQMLQTRFPLDYYSIPFPTPTTPLTGRDGSLASNPYSGDLTKFGRGDASSPAPATTLAQPQQNQTQTHHTTQQTFLNPALPPGYSYTSLPYYTGVPGLPSTFQYGPAVFPVAPTSSKQHGVNVSVNASATPFQQPSGYGSHGYNTGVSVTSSNTGVPDISGSVYSKTQQSFEKQGFHSGTPAASFNLPSALGSGGPINPATAAAYPPAPFMHILTPHQQPHSQILHHHLQQDGQTGSGQRSQTSSIPQKPQTNKSAYNSYSWGAN
B4: NUFIP2 (protein)
chain: MEEKPGQPQPQHHHSHHHPHHHPQQQQQQPHHHHHYYFYNHSHNHHHHHHHQQPHQYLQHGAEGSPKAQPKPLKHEQKHTLQQHQETPKKKTGYGELNGNAGEREISLKNLSSDEATNPISRVLNGNQQVVDTSLKQTVKANTFGKAGIKTKNFIQKNSMDKKNGKSYENKSGENQSVDKSDTIPIPNGVVTNNSGYITNGYMGKGADNDGSGSESGYTTPKKRKARRNSAKGCENLNIVQDKIMQQETSVPTLKQGLETFKPDYSEQKGNRVDGSKPIWKYETGPGGTSRGKPAVGDMLRKSSDSKPGVSSKKFDDRPKGKHASAVASKEDSWTLFKPPPVFPVDNSSAKIVPKISYASKVKENLNKTIQNSSVSPTSSSSSSSSTGETQTQSSSRLSQVPMSALKSVTSANFSNGPVLAGTDGNVYPPGGQPLLTTAANTLTPISSGTDSVLQDMSLTSAAVEQIKTSLFIYPSNMQTMLLSTAQVDLPSQTDQQNLGDIFQNQWGLSFINEPSAGPETVTGKSSEHKVMEVTFQGEYPATLVSQGAEIIPSGTEHPVFPKAYELEKRTSPQVLGSILKSGTTSESGALSLEPSHIGDLQKADTSSQGALVFLSKDYEIESQNPLASPTNTLLGSAKEQRYQRGLERNDSWGSFDLRAAIVYHTKEMESIWNLQKQDPKRIITYNEAMDSPDQ
B5: EIF5B (protein)
chain: MGKKQKNKSEDSTKDDIDLDALAAEIEGAGAAKEQEPQKSKGKKKKEKKKQDFDEDDILKELEELSLEAQGIKADRETVAVKPTENNEEEFTSKDKKKKGQKGKKQSFDDNDSEELEDKDSKSKKTAKPKVEMYSGSDDDDDFNKLPKKAKGKAQKSNKKWDGSEEDEDNSKKIKERSRINSSGESGDESDEFLQSRKGQKKNQKNKPGPNIESGNEDDDASFKIKTVAQKKAEKKERERKKRDEEKAKLRKLKEKEELETGKKDQSKQKESQRKFEEETVKSKVTVDTGVIPASEEKAETPTAAEDDNEGDKKKKDKKKKKGEKEEKEKEKKKGPSKATVKAMQEALAKLKEEEERQKREEEERIKRLEELEAKRKEEERLEQEKRERKKQKEKERKERLKKEGKLLTKSQREARARAEATLKLLQAQGVEVPSKDSLPKKRPIYEDKKRKKIPQQLESKEVSESMELCAAVEVMEQGVPEKEETPPPVEPEEEEDTEDAGLDDWEAMASDEETEKVEGNKVHIEVKENPEEEEEEEEEEEEDEESEEEEEEEGESEGSEGDEEDEKVSDEKDSGKTLDKKPSKEMSSDSEYDSDDDRTKEERAYDKAKRRIEKRRLEHSKNVNTEKLRAPIICVLGHVDTGKTKILDKLRHTHVQDGEAGGITQQIGATNVPLEAINEQTKMIKNFDRENVRIPGMLIIDTPGHESFSNLRNRGSSLCDIAILVVDIMHGLEPQTIESINLLKSKKCPFIVALNKIDRLYDWKKSPDSDVAATLKKQKKNTKDEFEERAKAIIVEFAQQGLNAALFYENKDPRTFVSLVPTSAHTGDGMGSLIYLLVELTQTMLSKRLAHCEELRAQVMEVKALPGMGTTIDVILINGRLKEGDTIIVPGVEGPIVTQIRGLLLPPPMKELRVKNQYEKHKEVEAAQGVKILGKDLEKTLAGLPLLVAYKEDEIPVLKDELIHELKQTLNAIKLEEKGVYVQASTLGSLEALLEFLKTSEVPYAGINIGPVHKKDVMKASVMLEHDPQYAVILAFDVRIERDAQEMADSLGVRIFSAEIIYHLFDAFTKYRQDYKKQKQEEFKHIAVFPCKIKILPQYIFNSRDPIVMGVTVEAGQVKQGTPMCVPSKNFVDIGIVTSIEINHKQVDVAKKGQEVCVKIEPIPGESPKMFGRHFEATDILVSKISRQSIDALKDWFRDEMQKSDWQLIVELKKVFEII

target: T1, B3GNT2; test: Co-IP of FLAG-tagged B3GNT2 followed by mass spectrometry; type: cell-based; parameters: C-term IgG / C-term flag: unit not given here; conditions: Co-IP followed by mass spectrometry of B3GNT2; C-term tag, FLAG pull-down
In short: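 FLAG-tagged B3GNT2 immunoprecipitated from cell lysate (HEPES, 1% Triton X-100, 150 mM NaCl) with anti-FLAG versus […], overnight at 4° C, then captured on Protein A/G magnetic beads for 4 h. Two biological replicates per condition. Peptides fractionated and analyzed by nano-LC on an Orbitrap Elite in data-dependent mode.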

C-term flag | Molecule
0 | B1
3 | B2
19 | B3
5 | B4
3 | B5

same assay, conditions: Co-IP followed by mass spectrometry of B3GNT2; C-term tag, IgG pull-down

C-term IgG | Molecule
0 | B1
0 | B2
15 | B3
4 | B4
0 | B5

same assay, conditions: Co-IP followed by mass spectrometry of B3GNT2; N-term tag, FLAG pull-down

N-term FLAG | Molecule
3 | B1
0 | B2
20 | B3
3 | B4
0 | B5

same assay, conditions: Co-IP followed by mass spectrometry of B3GNT2; N-term tag, IgG pull-down

N-term IgG | Molecule
0 | B1
0 | B2
20 | B3
3 | B4
0 | B5
